According to patent publication US20240076392A1 (IGM BIOSCIENCES, published 2024):

T1: recombinant human CD123 protein (CD123, Fc-Fusion (IgG1) Avi-Tag, Biotin-Labeled, BPS Bioscience Cat.100068-2) (human, UniProt P26951 19-305, limits assumed, biotin-labeled (Avi-Tag))
T1 construct: Bought protein; not shown: IgG1 Fc; Avi-Tag
T1 sequence (looked up): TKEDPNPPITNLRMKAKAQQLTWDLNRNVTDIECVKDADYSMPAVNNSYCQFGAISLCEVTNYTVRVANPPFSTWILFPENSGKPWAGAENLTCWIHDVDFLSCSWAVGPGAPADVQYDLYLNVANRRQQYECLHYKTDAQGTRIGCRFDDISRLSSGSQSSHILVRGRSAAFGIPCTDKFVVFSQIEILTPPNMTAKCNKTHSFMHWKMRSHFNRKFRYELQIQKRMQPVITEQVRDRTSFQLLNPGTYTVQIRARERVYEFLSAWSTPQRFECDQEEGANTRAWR

T2: Human CD123
T2 construct: It is a different reagent from m11 (Acro, His) and m13 (BPS, Fc); also called recombinant human CD123 protein (Sino Biological 10518-H08H-50); not shown: The tag of the vendor's product
T2 chain: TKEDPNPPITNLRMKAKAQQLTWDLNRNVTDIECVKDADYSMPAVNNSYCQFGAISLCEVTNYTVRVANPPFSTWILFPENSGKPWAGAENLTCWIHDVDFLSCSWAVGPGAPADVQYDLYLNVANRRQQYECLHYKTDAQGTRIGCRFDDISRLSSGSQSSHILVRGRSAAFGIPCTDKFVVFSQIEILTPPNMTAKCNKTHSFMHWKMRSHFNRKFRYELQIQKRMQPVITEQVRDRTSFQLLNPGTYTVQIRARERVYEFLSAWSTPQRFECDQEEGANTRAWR

T3: recombinant human CD123 protein (CD123)-His Acrobio #ILA-H52H6 (human, UniProt P26951 19-305)
T3 construct: Bought protein; also called hu IL-3R alpha (CD123)-His; not shown: His tag
T3 sequence (looked up): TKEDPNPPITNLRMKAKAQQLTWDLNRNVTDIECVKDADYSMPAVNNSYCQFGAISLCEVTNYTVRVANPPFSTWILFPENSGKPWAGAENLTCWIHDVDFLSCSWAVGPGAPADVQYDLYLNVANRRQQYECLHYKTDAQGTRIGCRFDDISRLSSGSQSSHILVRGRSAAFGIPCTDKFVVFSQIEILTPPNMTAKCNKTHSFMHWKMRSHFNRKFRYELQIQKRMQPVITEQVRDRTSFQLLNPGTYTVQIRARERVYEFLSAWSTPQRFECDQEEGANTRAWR

B1: h32716-4-2 IgM (CD123xCD3 IgM antibody) (bispecific antibody)
VH: QVQLVQSGPELKKPGASVKVSCKASGYIFTNYGMNWVRQAPGQGLEWMGWINTYTGESTYSADFKGRFVFSLDTSVSTAYLQISSLKAEDTAVYYCARSGGYDPMDYWGQGTLVTVSS
VL: DIQMTQSPSSLSASVGDRVTITCRASESVDNYGNTFMHWYQQKPGKAPKLLIYRASNLESGVPSRFSGSGSGTDFTFTISSLQPEDIATYYCQQSNEDPPTFGQGTKVEIK
chain: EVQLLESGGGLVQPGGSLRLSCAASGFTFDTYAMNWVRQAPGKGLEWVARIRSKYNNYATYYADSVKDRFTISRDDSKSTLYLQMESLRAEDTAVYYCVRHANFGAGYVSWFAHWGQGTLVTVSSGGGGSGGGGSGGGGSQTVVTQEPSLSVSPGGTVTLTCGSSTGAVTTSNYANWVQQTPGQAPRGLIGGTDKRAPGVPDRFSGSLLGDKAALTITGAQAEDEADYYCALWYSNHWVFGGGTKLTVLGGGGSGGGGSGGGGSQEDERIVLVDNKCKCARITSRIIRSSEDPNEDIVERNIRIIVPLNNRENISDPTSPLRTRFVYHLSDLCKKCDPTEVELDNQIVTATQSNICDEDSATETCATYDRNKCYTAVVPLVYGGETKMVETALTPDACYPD
notes: Pentameric IgM with modified J-chain
B2: h32716-5-2 IgG (antibody, V domains shown)
VH: QVQLVQSGPELKKPGASVKVSCKASGYIFTNYGMNWVKQAPGQGLEWMGWINTYTGESTYSADFKGRFVFSLDTSVSTAYLQISSLKAEDTAVYYCARSGGYDPMDYWGQGTLVTVSS
VL: DIQMTQSPSSLSASVGDRVTITCRASESVDNYGNTFMHWYQQKPGKAPKLLIYRASNLESGVPSRFSGSGSGTDFTFTISSLQPEDIATYYCQQSNEDPPTFGQGTKVEIK
notes: Human IgG format
B3: h32716-4-2 IgG (antibody, V domains shown)
VH: QVQLVQSGPELKKPGASVKVSCKASGYIFTNYGMNWVRQAPGQGLEWMGWINTYTGESTYSADFKGRFVFSLDTSVSTAYLQISSLKAEDTAVYYCARSGGYDPMDYWGQGTLVTVSS
VL: DIQMTQSPSSLSASVGDRVTITCRASESVDNYGNTFMHWYQQKPGKAPKLLIYRASNLESGVPSRFSGSGSGTDFTFTISSLQPEDIATYYCQQSNEDPPTFGQGTKVEIK
notes: Human IgG format
B4: h32716-6-2 IgG (antibody, V domains shown)
VH: QVQLVQSGPELKKPGASVKVSCKASGYIFTNYGMNWVKQAPGQGFKWMGWINTYTGESTYSADFKGRFVFSLDTSVSTAYLQISSLKAEDTAVYYCARSGGYDPMDYWGQGTLVTVSS
VL: DIQMTQSPSSLSASVGDRVTITCRASESVDNYGNTFMHWYQQKPGKAPKLLIYRASNLESGVPSRFSGSGSGTDFTFTISSLQPEDIATYYCQQSNEDPPTFGQGTKVEIK
notes: Human IgG format
B5: h32716-1-1 IgM (CD123xCD3 IgM antibody) (bispecific antibody)
VH: QVQLVQSGAEVKKPGSSVKVSCKASGYIFTNYGMNWVRQAPGQGLEWMGWINTYTGESTYSADFKGRVTITADESTSTAYMELSSLRSEDTAVYYCARSGGYDPMDYWGQGTLVTVSS
VL: DIVMTQSPDSLAVSLGERATINCRASESVDNYGNTFMHWYQQKPGQPPKLLIYRASNLESGVPDRFSGSGSGTDFTLTISSLQAEDVAVYYCQQSNEDPPTFGQGTRLEIK
chain: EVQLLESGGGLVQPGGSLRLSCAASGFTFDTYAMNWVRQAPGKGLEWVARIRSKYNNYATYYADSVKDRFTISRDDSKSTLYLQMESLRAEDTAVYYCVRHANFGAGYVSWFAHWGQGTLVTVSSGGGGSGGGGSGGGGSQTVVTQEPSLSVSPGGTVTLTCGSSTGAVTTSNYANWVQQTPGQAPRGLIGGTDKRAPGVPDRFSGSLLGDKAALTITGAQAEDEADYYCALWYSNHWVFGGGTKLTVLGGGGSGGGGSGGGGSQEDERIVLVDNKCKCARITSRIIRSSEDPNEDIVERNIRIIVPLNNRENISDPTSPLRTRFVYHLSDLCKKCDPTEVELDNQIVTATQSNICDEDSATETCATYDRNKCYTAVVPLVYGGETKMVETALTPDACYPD
notes: as for B1
B6: h32716-2-1 IgG (antibody, V domains shown)
VH: QVQLVQSGAEVKKPGSSVKVSCKASGYIFTNYGMNWVKQAPGQGLEWMGWINTYTGESTYSADFKGRFTFTLDESTSTAYMELSSLRSEDTAVYYCARSGGYDPMDYWGQGTLVTVSS
VL: DIVMTQSPDSLAVSLGERATINCRASESVDNYGNTFMHWYQQKPGQPPKLLIYRASNLESGVPDRFSGSGSGTDFTLTISSLQAEDVAVYYCQQSNEDPPTFGQGTRLEIK
notes: Human IgG format
B7: h32716-1-1 IgG (antibody, V domains shown)
VH: QVQLVQSGAEVKKPGSSVKVSCKASGYIFTNYGMNWVRQAPGQGLEWMGWINTYTGESTYSADFKGRVTITADESTSTAYMELSSLRSEDTAVYYCARSGGYDPMDYWGQGTLVTVSS
VL: DIVMTQSPDSLAVSLGERATINCRASESVDNYGNTFMHWYQQKPGQPPKLLIYRASNLESGVPDRFSGSGSGTDFTLTISSLQAEDVAVYYCQQSNEDPPTFGQGTRLEIK
notes: Human IgG format
B8: h32716-3-1 IgG (antibody, V domains shown)
VH: QVQLVQSGAEVKKPGSSVKVSCKASGYIFTNYGMNWVKQAPGQGFKWMGWINTYTGESTYSADFKGRFTFTLDESTSTAYMELSSLRSEDTAVYYCARSGGYDPMDYWGQGTLVTVSS
VL: DIVMTQSPDSLAVSLGERATINCRASESVDNYGNTFMHWYQQKPGQPPKLLIYRASNLESGVPDRFSGSGSGTDFTLTISSLQAEDVAVYYCQQSNEDPPTFGQGTRLEIK
notes: Human IgG format
B9: 32716 IgM (CD123xCD3 IgM antibody) (bispecific antibody)
VH: QIQLVQSGPELKKPGETVKISCKASGYIFTNYGMNWVKQAPGKSFKWMGWINTYTGESTYSADFKGRFAFSLETSASTAYLHINDLKNEDTATYFCARSGGYDPMDYWGQGTSVTVSS
VL: DIVLTQSPASLAVSLGQRATISCRASESVDNYGNTFMHWYQQKPGQPPKLLIYRASNLESGIPARFSGSGSRTDFTLTINPVEADDVATYYCQQSNEDPPTFGAGTKLELK
J-chain: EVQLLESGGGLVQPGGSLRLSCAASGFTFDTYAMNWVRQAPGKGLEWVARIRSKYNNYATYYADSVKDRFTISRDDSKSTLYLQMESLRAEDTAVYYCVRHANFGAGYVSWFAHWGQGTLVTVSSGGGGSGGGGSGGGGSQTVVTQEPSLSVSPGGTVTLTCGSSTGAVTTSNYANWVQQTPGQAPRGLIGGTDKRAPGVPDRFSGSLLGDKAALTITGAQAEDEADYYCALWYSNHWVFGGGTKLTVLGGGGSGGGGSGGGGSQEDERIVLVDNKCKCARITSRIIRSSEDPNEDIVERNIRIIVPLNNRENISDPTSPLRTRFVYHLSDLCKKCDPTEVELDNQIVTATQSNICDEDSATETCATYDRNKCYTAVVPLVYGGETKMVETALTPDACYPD
notes: Pentameric IgM with J-chain; also called original mouse antibody
B10: 32716 IgG (antibody, V domains shown)
VH: QIQLVQSGPELKKPGETVKISCKASGYIFTNYGMNWVKQAPGKSFKWMGWINTYTGESTYSADFKGRFAFSLETSASTAYLHINDLKNEDTATYFCARSGGYDPMDYWGQGTSVTVSS
VL: DIVLTQSPASLAVSLGQRATISCRASESVDNYGNTFMHWYQQKPGQPPKLLIYRASNLESGIPARFSGSGSRTDFTLTINPVEADDVATYYCQQSNEDPPTFGAGTKLELK
notes: Parental mouse variable domains cloned into human IgG format; detected with anti-human kappa; also called original mouse antibody

Key:
[1] = biological target: T1, recombinant human CD123 protein (CD123, …); experiment: BLI (Octet), CD123-Fc on anti-human Fc sensors, IgM in solution
Human CD123 = biological target: T2, Human CD123; experiment: ELISA, plate coated with 0.2 ug/mL recombinant human CD123 (Sino Biological), detection with HRP anti-human kappa, chemiluminescence
Protocol: 96-well white polystyrene ELISA plates (Pierce 15042) were coated with 100 μL per well of 0.2 μg/mL recombinant human CD123 protein (Sino Biological 10518-H08H-50) or 0.5 μg/ml recombinant human CD3ε protein (Acro Biosystems, CDE-H5256-100) overnight at 4° C. Plates were then washed 5 times with 0.05% PBS-Tween and blocked with 2% BSA-PBS. After blocking, 100 μL of serial dilutions of CD123×CD3 IgM antibodies, standards, and controls were added to the wells and incubated at room temperature for 2 hours. The plates were then washed 10 times and incubated with HRP conjugated mouse anti-human kappa (Southern Biotech, 9230-05. 1:6000 diluted in 2% BSA-PBS) for 30 min. After 10 final washes using 0.05% PBS-Tween, the plates were read out using SuperSignal chemiluminescent substrate (ThermoFisher, 37070). Luminescent data were collected on an EnVision plate reader (Perkin-Elmer) and analyzed with GraphPad Prism using a 4-parameter logistic model.

[2] = biological target: T3, recombinant human CD123 protein …; experiment: BLI (Octet), CD123-His on anti-penta-His sensors, IgG in solution, 1:1 global fit
Protocol: PBST (1×PBS+1% BSA+0.05% Tween-20) buffer was used as Antibody/CD123 dilution and sensor hydration buffer. The experiment followed a five-step sequential assay at 24° C. First, biosensors were hydrated for 10 minutes. Samples and buffer were applied in 384-well plate. After initial baseline for 60 s, sensors were loaded with 7 nM hu IL-3R alpha (CD123)-His Acrobio #ILA-H52H6. The biosensors were dipped into PBST for 20 s to reach baseline, then incubated for 420 s with 2-fold serial diluted anti-CD123 antibodies starting at 10 nM for association, followed by 900 s in PBST for dissociation. Results were analyzed by ForteBio Data Analysis software 9.0 using 1:1 global fit model.

Binder	Kd [1]	koff [1]	kon [1]	EC50 (read off the curve) (Human CD123)	Kd [2]	koff [2]	kon [2]
B1	4.43 pM	1.69e-05 s⁻¹	3.82e+06 M⁻¹ s⁻¹	~80 pM			
B2					710 pM	0.00045 s⁻¹	700000 M⁻¹ s⁻¹
B3					600 pM	0.00046 s⁻¹	770000 M⁻¹ s⁻¹
B4					330 pM	0.0002 s⁻¹	
B5	< 1 pM	< 1e-07 s⁻¹	3.9e+06 M⁻¹ s⁻¹	100 to 200 pM			
B6					450 pM	0.00049 s⁻¹	1.1e+06 M⁻¹ s⁻¹
B7					360 pM	0.0004 s⁻¹	940000 M⁻¹ s⁻¹
B8					250 pM	0.00031 s⁻¹	1.2e+06 M⁻¹ s⁻¹
B9	< 1 pM	< 1e-07 s⁻¹	4.1e+06 M⁻¹ s⁻¹	~30 pM			
B10					440 pM	0.0003 s⁻¹	710000 M⁻¹ s⁻¹
